In paper PMC11143371:

What was measured:
[1] = target: RV3 F ectodomain without GCN4, Q89M + Q222I + L168P + S470V (human respirovirus 3 (HPIV3/Seattle/USA/10Q7/2010)); assay: SEC
[2] = target: RV3 F ectodomain without GCN4, five head-stabilizing substitutions plus S470V and S477V (human respirovirus 3 (HPIV3/Seattle/USA/10Q7/2010)); assay: SEC-MALS; analytical SEC-MALS of F variants in supernatant
[3] = target: RV3 F ectodomain without GCN4, Q89M + Q222I + L168P + S477V (human respirovirus 3 (HPIV3/Seattle/USA/10Q7/2010)); assay: SEC
[4] = target: RV3 F ectodomain without GCN4, Q89M + Q222I + L168P + S470V + S477V (human respirovirus 3 (HPIV3/Seattle/USA/10Q7/2010)); assay: SEC
[5] = target: RV3 F ectodomain without GCN4, five head-stabilizing substitutions (S41P, N167P, Q89M, Q222I, L168P) (human respirovirus 3 (HPIV3/Seattle/USA/10Q7/2010)); assay: SEC-MALS; analytical SEC-MALS of F variants in supernatant
[6] = target: stabilized RV1 preF with K339P (A44P + E170P + Q171P + K339P + S473V + A480V) (human respirovirus 1) (UniProt P12605); assay: SEC
[7] = target: stabilized RV1 preF (A44P + E170P + Q171P + S473V + A480V) (human respirovirus 1) (UniProt P12605); assay: SEC-MALS
[8] = target: stabilized RV1 preF (A44P + E170P + Q171P + S473V + A480V) (human respirovirus 1) (UniProt P12605); assay: SEC

**Q.** With “RV3 F ectodomain without GCN4, Q89M + Q222I + L168P + S470V (domain or fragment)” as the substance, how does the stoichiometry N [1] read?
**A.** 3

**Q.** How did the stoichiometry N [2] turn out when “RV3 F ectodomain without GCN4, five head-stabilizing substitutions plus S470V and S477V (domain or fragment)” was run?
**A.** 3

**Q.** For “RV3 F ectodomain without GCN4, Q89M + Q222I + L168P + S477V (domain or fragment)”, which stoichiometry N [3] is on record?
**A.** 3

**Q.** For “RV3 F ectodomain without GCN4, Q89M + Q222I + L168P + S470V + S477V (domain or fragment)”, which stoichiometry N [4] is on record?
**A.** 3

**Q.** How did the stoichiometry N [5] turn out when “RV3 F ectodomain without GCN4, five head-stabilizing substitutions (S41P, N167P, Q89M, Q222I, L168P) (domain or fragment)” was run?
**A.** 3

**Q.** How did the stoichiometry N [6] turn out when “stabilized RV1 preF with K339P (A44P + E170P + Q171P + K339P + S473V + A480V) (from UniProt P12605 22-496) (domain or fragment)” was run?
**A.** 3

**Q.** With “stabilized RV1 preF (A44P + E170P + Q171P + S473V + A480V) (from UniProt P12605 22-496) (domain or fragment)” as the substance, how does the stoichiometry N [7] read?
**A.** 3

**Q.** And the stoichiometry N [8]?
**A.** 3
